Article PMC10784701

Molecular target: RedM, N,N-dimethyltransferase of the reductasporine biosynthetic pathway
Assay: SEC; size-exclusion chromatography of purified RedM in solution (Fig. S3); conditions of this run not shown

“RedM, N,N-dimethyltransferase of the reductasporine biosynthetic pathway (enzyme)” gave a stoichiometry N of 2.
